Measurements: publication PMC4923902 (Scientific Reports, 2016)
Numbering of substitutions follows the chain as printed. Numbers in names are those of the source. Values belong to the binder of their own block, whether it stands above or below them.

Columns and labels:
phosphorylated opsin [1] = target: T1, phosphorylated opsin (bovine, UniProt P02699 1-348, phosphorylated on the C-terminus by endogenous GRK1 (sites not given); no retinal (apo-protein)); assay: site-directed steady-state fluorescence; 1 uM labelled arrestin with 6 uM receptor in ROS membranes, 50 mM HEPES pH 7, low salt, 20 °C; conditions: one partner purified
T1 construct: bovine opsin (apo-protein of rhodopsin), endogenous in ROS membranes; in isolated, washed ROS disc membranes, not on whole cells; also called Ops-P; OpsP
T1 sequence (P02699 whole entry): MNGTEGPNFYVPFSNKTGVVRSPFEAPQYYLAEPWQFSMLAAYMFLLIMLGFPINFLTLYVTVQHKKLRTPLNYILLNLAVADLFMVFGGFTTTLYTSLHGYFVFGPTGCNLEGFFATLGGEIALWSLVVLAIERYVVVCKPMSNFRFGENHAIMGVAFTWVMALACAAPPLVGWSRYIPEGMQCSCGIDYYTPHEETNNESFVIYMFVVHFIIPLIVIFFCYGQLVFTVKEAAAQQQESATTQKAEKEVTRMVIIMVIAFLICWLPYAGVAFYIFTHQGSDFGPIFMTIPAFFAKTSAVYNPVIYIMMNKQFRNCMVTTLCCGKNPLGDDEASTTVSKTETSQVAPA

phosphorylated opsin [2] = target: T1, phosphorylated opsin; assay: site-directed steady-state fluorescence; 1 uM labelled arrestin with 6 uM Ops-P in ROS membranes, 50 mM HEPES pH 8, low salt, 20 °C; conditions: one partner purified

fluorescence increase relative to that with Meta II-P (phosphorylated opsin [1]): ~45%
fluorescence increase relative to that with Meta II-P (phosphorylated opsin [2]): ~18%
B1: arrestin I72NBD (natural protein, bovine, UniProt P08168 1-404, looked up)
chain: MKANKPAPNHVIFKKISRDKSVTIYLGKRDYIDHVERVEPVDGVVLVDPELVKGKRVYVSLTAAFRYGQEDCDVMGLSFRRDLYFSQVQVFPPVGASGATTRLQESLIKKLGANTYPFLLTFPDYLPSSVMLQPAPQDVGKSAGVDFEIKAFATHSTDVEEDKIPKKSSVRLLIRKVQHAPRDMGPQPRAEASFQFFMSDKPLRLAVSLSKEIYYHGEPIPVTVAVTNSTEKTVKKIKVLVEQVTNVVLYSSDYYIKTVAAEEAQEKVPPNSSLTKTLTLVPLLANNRERRGIALDGKIKHEDTNLASSTIIKEGIDKTVMGILVSYQIKVKLTVSGLLGELTSSEVATEVPFRLMHPQPEDPDTAKESFQDENFVFEEFARQNLKDAGEYKEEKTDQEAAMDE
modifications: NBD fluorophore (IANBD) on the cysteine at site 72
notes: recombinant bovine arrestin-1 mutant; also called arrestin-1 C63A, C128S, C143A, W194F, I72C labelled with IANBD; source: E. coli, purified

fluorescence change relative to that with Meta II-P (phosphorylated opsin [2]): ~38%
B2: arrestin I299B/L173W (natural protein, bovine, UniProt P08168 1-404, looked up)
chain: B1 chain with C72I, L173W, I299C
modifications: bimane fluorophore (monobromobimane) on the cysteine at site 299
notes: recombinant bovine arrestin-1 mutant; also called arrestin-1 C63A, C128S, C143A, W194F, L173W, I299C labelled with monobromobimane; source: E. coli, purified
